Source: patent USRE48267E1, “Variants of C-type natriuretic peptide” (priority 2009, dated 2020)
Where no end group is shown, it is not given here. [ ]: non-standard residue; d: D form. tBuAla = CC(C)(C)C[C@H](N)C(=O)O; Cit = NC(=O)NCCC[C@H](N)C(=O)O

T1: NPR-B (natriuretic peptide receptor B), murine, expressed endogenously on NIH3T3 cells (murine, UniProt Q6VVW5 17-1047)
T1 sequence (looked up): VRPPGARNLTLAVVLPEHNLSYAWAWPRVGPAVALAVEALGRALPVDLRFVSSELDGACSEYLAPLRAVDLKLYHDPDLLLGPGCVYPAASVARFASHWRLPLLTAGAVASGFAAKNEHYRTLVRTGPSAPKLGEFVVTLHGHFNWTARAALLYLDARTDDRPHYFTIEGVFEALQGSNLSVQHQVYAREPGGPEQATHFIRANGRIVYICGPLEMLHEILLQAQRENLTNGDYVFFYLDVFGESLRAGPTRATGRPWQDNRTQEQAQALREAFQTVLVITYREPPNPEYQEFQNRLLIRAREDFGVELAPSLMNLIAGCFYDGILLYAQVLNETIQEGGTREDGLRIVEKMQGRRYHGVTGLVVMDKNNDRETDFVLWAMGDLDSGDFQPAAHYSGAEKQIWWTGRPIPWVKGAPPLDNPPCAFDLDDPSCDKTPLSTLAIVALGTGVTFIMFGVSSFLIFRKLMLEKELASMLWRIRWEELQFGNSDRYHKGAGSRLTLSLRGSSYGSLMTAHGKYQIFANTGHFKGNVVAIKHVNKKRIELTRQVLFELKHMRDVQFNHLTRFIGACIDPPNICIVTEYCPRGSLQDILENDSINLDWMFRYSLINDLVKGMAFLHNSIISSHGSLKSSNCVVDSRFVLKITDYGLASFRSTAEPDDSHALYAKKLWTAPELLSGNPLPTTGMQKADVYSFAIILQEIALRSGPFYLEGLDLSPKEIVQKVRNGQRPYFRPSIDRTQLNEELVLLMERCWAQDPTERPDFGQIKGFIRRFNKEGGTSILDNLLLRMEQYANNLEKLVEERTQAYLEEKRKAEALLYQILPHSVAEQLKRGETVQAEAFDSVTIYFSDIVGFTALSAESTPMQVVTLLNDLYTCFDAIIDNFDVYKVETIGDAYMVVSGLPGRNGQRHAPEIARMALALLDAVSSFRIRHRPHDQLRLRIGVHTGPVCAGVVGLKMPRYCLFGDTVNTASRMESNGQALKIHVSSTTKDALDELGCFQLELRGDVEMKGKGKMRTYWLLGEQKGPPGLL


Biological target: T1, NPR-B (natriuretic peptide receptor B), …
Experiment: cell-based or functional assay

Binder | cGMP response rel. to 1 uM CNP22; 10 nM peptide, NIH3T3 cells | cGMP response rel. to 1 uM CNP22; 1 uM peptide, NIH3T3 cells
GLSRGCFGLKLDRINSMSGLGC [CNP22, K4R, G15N] | 4 rel. to 1 uM CNP22 (100) | 41 rel. to 1 uM CNP22 (100)
GLSRGCFVLKLDRIGSMSGLGC [CNP22, K4R, G8V] | 3 rel. to 1 uM CNP22 (100) | 25 rel. to 1 uM CNP22 (100)
GLSRGCFGLKLDRIGSMSGLGC [CNP22, K4R] | 59 rel. to 1 uM CNP22 (100) | 121 rel. to 1 uM CNP22 (100)
GLSRGCFGLKLDRIGSMSGRGC [CNP22, K4R, L20R] | 11 rel. to 1 uM CNP22 (100) | 8 rel. to 1 uM CNP22 (100)
GLSRGCFGLKLDRIGSMSGVGC [CNP22, K4R, L20V] | 0.2 rel. to 1 uM CNP22 (100) | 8 rel. to 1 uM CNP22 (100)
GLSRGCFGLKLDRIRSMSGLGC [CNP22, K4R, G15R] | 0.3 rel. to 1 uM CNP22 (100) | 0.3 rel. to 1 uM CNP22 (100)
GLSRGCFGLSLDRIGSMSGLGC [CNP22, K4R, K10S] | 16 rel. to 1 uM CNP22 (100) | 53 rel. to 1 uM CNP22 (100)
GLSRGCFGLKLDRIGSMSGLTC [CNP22, K4R, G21T] | 6 rel. to 1 uM CNP22 (100) | 21 rel. to 1 uM CNP22 (100)
ELSEGCFGLKLDRIGSMSGLGC [CNP22, G1E, K4E] | 11 rel. to 1 uM CNP22 (100) | 54 rel. to 1 uM CNP22 (100)
GLSRGCFGLKLDRISSMSGLGC [CNP22, K4R, G15S] | 13 rel. to 1 uM CNP22 (100) | 71 rel. to 1 uM CNP22 (100)
GLSRGCFGLRLDRIGSMSGLGC [CNP22, K4R, K10R] | 12 rel. to 1 uM CNP22 (100) | 80 rel. to 1 uM CNP22 (100)
GLSRGCFGLKLDRIGQMSGLGC [CNP22, K4R, S16Q] | 42 rel. to 1 uM CNP22 (100) | 116 rel. to 1 uM CNP22 (100)
GLSRGCFGLKLDRIGSNSGLGC [CNP22, K4R, M17N] | 40 rel. to 1 uM CNP22 (100) | 103 rel. to 1 uM CNP22 (100)
GLSRGCFGLQLDRIGSMSGLGC [CNP22, K4R, K10Q] | 9 rel. to 1 uM CNP22 (100) | 45 rel. to 1 uM CNP22 (100)
GLSRGCFGLKLDRI[Cit]SMSGLGC (ends and bridges not checked) [CNP22, K4R, G15Cit] | 1.4 rel. to 1 uM CNP22 (100) | 2 rel. to 1 uM CNP22 (100)
GLSRGCFSLKLDRIGSMSGLGC [CNP22, K4R, G8S] | 26 rel. to 1 uM CNP22 (100) | 86 rel. to 1 uM CNP22 (100)
GLSRGCFGL[Cit]LDRIGSMSGLGC (ends and bridges not checked) [CNP22, K4R, K10Cit] | 6 rel. to 1 uM CNP22 (100) | 33 rel. to 1 uM CNP22 (100)
GLSRGCFTLKLDRIGSMSGLGC [CNP22, K4R, G8T] | 11 rel. to 1 uM CNP22 (100) | 66 rel. to 1 uM CNP22 (100)
GLSRGCYGLKLDRIGSMSGLGC (ends and bridges not checked; cysteine pairing not given here) [CNP22, K4R, F7Y] | 2 rel. to 1 uM CNP22 (100) | 18 rel. to 1 uM CNP22 (100)
GLSRGCFGLKLDRIGSMSRLGC [CNP22, K4R, G19R] | 22 rel. to 1 uM CNP22 (100) | 84 rel. to 1 uM CNP22 (100)
GLSRGCFGTKLDRIGSMSGLGC [CNP22, K4R, L9T] | 4 rel. to 1 uM CNP22 (100) | 68 rel. to 1 uM CNP22 (100)
GLSRSCFGLKLDRIGSMSGLGC [CNP22, K4R, G5S] | 45 rel. to 1 uM CNP22 (100) | 
GLSRGCFGLKLDRIGSMSG[tBuAla]GC (ends and bridges not checked) [CNP22, K4R, L20t-butyl-Ala] | 1 rel. to 1 uM CNP22 (100) | 21 rel. to 1 uM CNP22 (100)
GLSRGCFGLKLDRIGSMSGLRC [CNP22, K4R, G21R] | 20 rel. to 1 uM CNP22 (100) | 21 rel. to 1 uM CNP22 (100)
GLSRRCFGLKLDRIGSMSGLGC [CNP22, K4R, G5R] | 18 rel. to 1 uM CNP22 (100) | 80 rel. to 1 uM CNP22 (100)
GLSRGCFGLKLDRIGSMSSLGC [CNP22, K4R, G19S] | 21 rel. to 1 uM CNP22 (100) | 63 rel. to 1 uM CNP22 (100)
GLSRGCFGLKLDRIGSVSGLGC [CNP22, K4R, M17V] | 10 rel. to 1 uM CNP22 (100) | 65 rel. to 1 uM CNP22 (100)

Biological target: T1, NPR-B (natriuretic peptide receptor B), …
Experiment: cell-based or functional assay
Remark: another data set of the same source

Binder | cGMP response rel. to 1 uM CNP22; 10 nM peptide, NIH3T3 cells | cGMP response rel. to 1 uM CNP22; 1 uM peptide, NIH3T3 cells
{PEG 20 kDa}-GLSKGCFGLKLDRIGSMSGLGC (ends and bridges not checked) [PEG20K-CNP22] | 0 rel. to 1 uM CNP22 (100) | 15 rel. to 1 uM CNP22 (100)
{PEG 2 kDa}-GLSKGCFGLKLDRIGSMSGLGC (ends and bridges not checked) [PEG2K-CNP22] | 6 rel. to 1 uM CNP22 (100) | 32 rel. to 1 uM CNP22 (100)
{PEG 5 kDa}-GLSKGCFGLKLDRIGSMSGLGC (ends and bridges not checked; also: PEG polydispersed) [PEG5K-CNP22] | 8 rel. to 1 uM CNP22 (100) | 20 rel. to 1 uM CNP22 (100)
{PEO4‑(PEO12)3 (branched)}-GLSKGCFGLKLDRIGSMSGLGC (ends and bridges not checked) [PEO4-(PEO12)3 (branched)-CNP22] | 17 rel. to 1 uM CNP22 (100) | 52 rel. to 1 uM CNP22 (100)
